# Results from patent US12116428B2, “Lipid analogs and liposomes comprising same” (Yeda Research and Development Co. Ltd., priority 2015, dated 2024).
# What was measured:
# [1] = Zeta potential measurement; format: physicochemical; conditions: FIG. 11: SUVs of HSPC and DSG-PMPC
# [2] = Micelle formation in water by dynamic light scattering; format: physicochemical; conditions: 20 mg/ml in pure water (pH 5), one day
Substance,net charge (zeta potential) [1],micelle formation [2]
"1,2-distearoyl-sn-glycerol-poly((O-(2-methacryloyloxyethyl) phosphorylcholine) [DSG-PMPC]",zero,
distearoylphosphatidylethanolamine-substituted poly(O-(2-methacryloyloxyethyl)phosphorylcholine) [DSPE-PMPC],,formed micelles
